Target: recombinant human PD-L1-mFc fusion protein (human) (UniProt Q9NZQ7)
Assay: ELISA, human PD-L1-mFc immobilised (1 µg/mL), anti-human kappa-HRP detection

recombinant human PD-L1-mFc fusion protein (human), sequence (Q9NZQ7 19-238): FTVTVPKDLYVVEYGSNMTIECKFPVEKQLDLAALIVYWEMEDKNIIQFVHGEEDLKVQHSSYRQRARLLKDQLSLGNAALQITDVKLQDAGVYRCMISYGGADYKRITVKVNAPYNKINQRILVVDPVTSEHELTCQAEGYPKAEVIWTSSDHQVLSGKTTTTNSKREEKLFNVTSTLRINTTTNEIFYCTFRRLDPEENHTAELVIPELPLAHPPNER

EC50: 0.107 nM
Substance: Avelumab/TGFβR (antibody)
